{
  "source": "patent US20220162583",
  "experiment_in_all_cases": "cell_activity",
  "key": {"[1]": {"system": "nd4 mito-nickase (1) left TALE-FokI", "conditions": "zebrafish embryos; both nd4 nickase pairs co-injected"}, "[2]": {"system": "nd4 mito-nickase (2) left TALE-FokI", "conditions": "zebrafish embryos; both nd4 nickase pairs co-injected"}, "[3]": {"system": "nd5 mito-nickase right TALE-FokI", "conditions": "nearly 30%; with atp8 nickase"}, "[4]": {"system": "nd4 mitoTALE nuclease left", "conditions": "with nd5 and atp8 nickases; deletions also with nuclease alone"}, "[5]": {"system": "nd4 mito-nickase (2) right TALE-FokI", "conditions": "zebrafish embryos; both nd4 nickase pairs co-injected"}, "[6]": {"system": "nd5 mito-nickase left TALE-FokI", "conditions": "nearly 30%; with atp8 nickase"}, "[7]": {"system": "atp8 mito-nickase left TALE-FokI", "conditions": "nearly 30%; with nd5 nickase"}, "[8]": {"system": "nd4 mitoTALE nuclease right", "conditions": "with nd5 and atp8 nickases; deletions also with nuclease alone"}, "[9]": {"system": "atp8 mito-nickase right TALE-FokI", "conditions": "nearly 30%; with nd5 nickase"}, "[10]": {"system": "nd4 mito-nickase (1) right TALE-FokI", "conditions": "zebrafish embryos; both nd4 nickase pairs co-injected"}},
  "data": [
    {"sequence": "AAGTTCTGGTTTTAA (double strand) [nd4 nickase (1) left site]", "values": [
      {"measurement": "activity (% embryos with deletion)", "setting": "[1]", "result": 50}
    ]},
    {"sequence": "ACGAGTTAGAAGCAT (double strand) [nd4 nickase (2) left site]", "values": [
      {"measurement": "activity (% embryos with deletion)", "setting": "[2]", "result": 50}
    ]},
    {"sequence": "AGGGCTAATGATAGT (double strand) [nd5 nickase right site]", "values": [
      {"measurement": "activity (% embryos with deletion)", "setting": "[3]", "result": 30}
    ]},
    {"sequence": "CGGGTAATAATGATT (double strand) [nd4 nuclease left site]", "values": [
      {"measurement": "activity (% embryos with deletion)", "setting": "[4]", "result": "> 90"}
    ]},
    {"sequence": "GACTAAAATGAACCT (double strand) [nd4 nickase (2) right site]", "values": [
      {"measurement": "activity (% embryos with deletion)", "setting": "[5]", "result": 50}
    ]},
    {"sequence": "GCTAGATGTGGTTGG (double strand) [nd5 nickase left site]", "values": [
      {"measurement": "activity (% embryos with deletion)", "setting": "[6]", "result": 30}
    ]},
    {"sequence": "TAGGTTGAATGTGAT (double strand) [atp8 nickase left site]", "values": [
      {"measurement": "activity (% embryos with deletion)", "setting": "[7]", "result": 30}
    ]},
    {"sequence": "TATATTCGAAGCTAC (double strand) [nd4 nuclease right site]", "values": [
      {"measurement": "activity (% embryos with deletion)", "setting": "[8]", "result": "> 90"}
    ]},
    {"sequence": "TCCTTACTATTATTC (double strand) [atp8 nickase right site]", "values": [
      {"measurement": "activity (% embryos with deletion)", "setting": "[9]", "result": 30}
    ]},
    {"sequence": "TTACACCTAATTCCT (double strand) [nd4 nickase (1) right site]", "values": [
      {"measurement": "activity (% embryos with deletion)", "setting": "[10]", "result": 50}
    ]}
  ]
}
